Target: SIINFEKL/H-2 Kb (mouse) (UniProt P01901)

OT-1 T cell Receptor (TCR) of OT-1 TCR transgenic T cells
expression of the cell surface markers CD44, CD69 and CD25 on OT-1 cells after stimulation with irradiated CD80/EG7: 100%

From patent US20090196877A1
